{"source": "paper PMC11648244", "about": "“Substrate specificity and kinetic mechanism of 3β-hydroxy- Δ ^5-C27-steroid oxidoreductase” (The Journal of Biological Chemistry, 2024)", "molecules": {"B1": {"name": "3β-hydroxy-Δ^5-C27-steroid oxidoreductase (HSD3B7) (Homo sapiens) (protein)", "chain": "MADSAQAQKLVYLVTGGCGFLGEHVVRMLLQREPRLGELRVFDQHLGPWLEELKTGPVRVTAIQGDVTQAHEVAAAVAGAHVVIHTAGLVDVFGRASPKTIHEVNVQGTRNVIEACVQTGTRFLVYTSSMEVVGPNTKGHPFYRGNEDTPYEAVHRHPYPCSKALAEWLVLEANGRKVRGGLPLVTCALRPTGIYGEGHQIMRDFYRQGLRLGGWLFRAIPASVEHGRVYVGNVAWMHVLAARELEQRATLMGGQVYFCYDGSPYRSYEDFNMEFLGPCGLRLVGARPLLPYWLLVFLAALNALLQWLLRPLVLYAPLLNPYTLAVANTTFTVSTDKAQRHFGYEPLFSWEDSRTRTILWVQAATGSAQ", "notes": "WT, N-terminal 6x histidine tag"}, "B2": {"name": "3β-hydroxy-Δ^5-C27-steroid oxidoreductase (HSD3B7) (Homo sapiens; F93A) (protein)", "chain": "B1 chain with F93A", "notes": "F93A mutant"}, "B3": {"name": "3β-hydroxy-Δ^5-C27-steroid oxidoreductase (HSD3B7) (Homo sapiens; F205A) (protein)", "chain": "B1 chain with F205A", "notes": "F205A mutant"}}, "key": {"[1]": {"molecular_target": "3β-HSD dehydrogenase type I (HSD3B1) (UniProt P14060)", "assay": "cross-linking; chemical crosslinking in solution, bands on a gel"}, "[2]": {"molecular_target": "3β-HSD dehydrogenase type II (HSD3B2) (UniProt P26439)", "assay": "cross-linking; chemical crosslinking in solution, bands on a gel"}, "[3]": {"molecular_target": "T1, 3β-hydroxy-Δ^5-C27-steroid oxidoreductase (HSD3B7) (Homo sapiens, UniProt Q9H2F3)", "T1 construct": "WT, N-terminal 6x histidine tag", "T1 sequence (Q9H2F3 1-369)": "B1 chain", "assay": "FRET from intrinsic tryptophan fluorescence to NADH, Morrison fit", "type": "binding"}, "[4]": {"substrate": "NC(=O)c1ccc[n+]([C@@H]2O[C@H](COP(=O)([O-])OP(=O)(O)OC[C@H]3O[C@@H](n4cnc5c(N)ncnc54)[C@H](O)[C@@H]3O)[C@@H](O)[C@H]2O)c1", "assay": "purified protein", "type": "biochemical, Homo sapiens", "settings": "varied: cofactor"}, "[5]": {"substrate": "CC(C)CCC[C@@H](C)[C@H]1CC[C@H]2[C@@H]3[C@H](O)C=C4C[C@@H](O)CC[C@]4(C)[C@H]3CC[C@]12C", "assay": "steady-state kinetics of purified enzyme (NAD(P)H-Glo), Km", "type": "biochemical, Homo sapiens", "design": "kcat / Vmax: unit not given here", "settings": "NAD+ predicted oxysterol pocket; F93, F205, I201; near Y-S-N-K tetrad (docking)"}, "[6]": {"substrate": "CC(CCCC(C)C1CCC2C3C(O)C=C4C[C@@H](O)CC[C@]4(C)C3CC[C@]12C)C(=O)O", "assay": "steady-state kinetics of purified enzyme (NAD(P)H-Glo), Km", "type": "biochemical, Homo sapiens", "design": "kcat / Vmax: unit not given here", "settings": "NAD+ predicted oxysterol pocket; F93, F205, I201 (docking)"}, "[7]": {"substrate": "C[C@H](CCCC(C)(C)O)[C@H]1CC[C@H]2[C@@H]3[C@H](O)C=C4C[C@@H](O)CC[C@]4(C)[C@H]3CC[C@]12C", "assay": "steady-state kinetics of purified enzyme (NAD(P)H-Glo), Km", "type": "biochemical, Homo sapiens", "design": "kcat / Vmax: unit not given here", "settings": "NAD+ predicted oxysterol pocket; F93, F205, I201 (docking)"}, "[8]": {"substrate": "C[C@@H](CO)CCC[C@@H](C)[C@H]1CC[C@H]2[C@@H]3[C@H](O)C=C4C[C@@H](O)CC[C@]4(C)[C@H]3CC[C@]12C", "assay": "steady-state kinetics of purified enzyme (NAD(P)H-Glo), Km", "type": "biochemical, Homo sapiens", "design": "kcat / Vmax: unit not given here", "settings": "NAD+ predicted oxysterol pocket; F93, F205, I201, Q208 (docking)"}, "[9]": {"substrate": "CC(C)CCC[C@@H](C)[C@H]1CC[C@H]2[C@@H]3[C@H](O)C=C4C[C@@H](O)CC[C@]4(C)[C@H]3CC[C@]12C", "assay": "steady-state kinetics of purified mutant, apparent Km", "type": "biochemical, Homo sapiens", "settings": "NAD+ predicted oxysterol binding pocket"}, "[10]": {"substrate": "CC(C)CCC[C@@H](C)[C@H]1CC[C@H]2[C@@H]3[C@H](O)C=C4C[C@@H](O)CC[C@]4(C)[C@H]3CC[C@]12C", "assay": "steady-state kinetics of purified mutant, Km", "type": "biochemical, Homo sapiens", "settings": "NAD+ predicted oxysterol binding pocket"}, "[11]": {"settings": "conserved Rossmann fold domain (docking), binds first"}}, "note": "Numbering of substitutions follows the chain as printed. In names and notes the source's numbering stands."}
{"molecule": "3β-HSD dehydrogenase type I (HSD3B1) (from UniProt P14060 1-373) (enzyme)", "values": [{"measurement": "stoichiometry N", "setting": "[1]", "result": 2}]}
{"molecule": "3β-HSD dehydrogenase type II (HSD3B2) (from UniProt P26439 1-372) (enzyme)", "values": [{"measurement": "stoichiometry N", "setting": "[2]", "result": 2}]}
{"molecule": "NC(=O)C1=CN([C@@H]2O[C@H](COP(=O)(O)OP(=O)(O)OC[C@H]3O[C@@H](n4cnc5c(N)ncnc54)[C@H](O)[C@@H]3O)[C@@H](O)[C@H]2O)C=CC1", "note": "[NADH]", "values": [{"measurement": "Kd", "setting": "[3]", "result": 780, "unit": "nM"}]}
{"molecule": "B1", "values": [{"measurement": "Km", "setting": "[4]; [11]", "result": 45.8, "unit": "µM"}, {"measurement": "Vmax", "setting": "[4]; [11]", "result": "587.2 (550.0, 628.7)"}, {"measurement": "kcat", "setting": "[4]; [11]", "result": "24.7 (23.1, 26.4)"}, {"measurement": "kcat/Km", "setting": "[4]; [11]", "result": "9000 ± 3200", "unit": "M⁻¹ s⁻¹"}, {"measurement": "Km", "setting": "[5]", "result": 17.4, "unit": "µM"}, {"measurement": "Vmax", "setting": "[5]", "result": "735 (669.5, 812.3)"}, {"measurement": "kcat", "setting": "[5]", "result": "30.9 (28.1, 34.1)"}, {"measurement": "kcat/Km", "setting": "[5]", "result": "30000 ± 10000", "unit": "M⁻¹ s⁻¹"}, {"measurement": "Km", "setting": "[6]", "result": 8.6, "unit": "µM"}, {"measurement": "Vmax", "setting": "[6]", "result": "551.8 (513.5, 593.2)"}, {"measurement": "kcat", "setting": "[6]", "result": "23.2 (21.6, 24.9)"}, {"measurement": "kcat/Km", "setting": "[6]", "result": "45000 ± 17000", "unit": "M⁻¹ s⁻¹"}, {"measurement": "Km", "setting": "[7]", "result": 18.3, "unit": "µM"}, {"measurement": "Vmax", "setting": "[7]", "result": "901.8 (785.3, 1044)"}, {"measurement": "kcat", "setting": "[7]", "result": "37.9 (33.0, 43.9)"}, {"measurement": "kcat/Km", "setting": "[7]", "result": "35000 ± 12000", "unit": "M⁻¹ s⁻¹"}, {"measurement": "Km", "setting": "[8]", "result": 3.8, "unit": "µM"}, {"measurement": "Vmax", "setting": "[8]", "result": "532.0 (493.0, 573.4)"}, {"measurement": "kcat", "setting": "[8]", "result": "22.4 (20.7, 24.1)"}, {"measurement": "kcat/Km", "setting": "[8]", "result": "98000 ± 22000", "unit": "M⁻¹ s⁻¹"}]}
{"molecule": "B2", "values": [{"measurement": "Km", "setting": "[9]", "result": 58.2, "unit": "µM"}, {"measurement": "Vmax", "setting": "[9]", "result": "286.5 (224.2, 405.0)"}, {"measurement": "kcat", "setting": "[9]", "result": "14.3 (11.2, 20.3)"}, {"measurement": "kcat/Km", "setting": "[9]", "result": "4100 ± 2000", "unit": "M⁻¹ s⁻¹"}]}
{"molecule": "B3", "values": [{"measurement": "Km", "setting": "[4]", "result": 93.8, "unit": "µM"}, {"measurement": "Vmax", "setting": "[4]", "result": "288.2 (255.0, 330.6)"}, {"measurement": "kcat", "setting": "[4]", "result": "5.8 (5.1, 6.6)"}, {"measurement": "kcat/Km", "setting": "[4]", "result": "1000 ± 400", "unit": "M⁻¹ s⁻¹"}, {"measurement": "Km", "setting": "[10]", "result": 11.2, "unit": "µM"}, {"measurement": "Vmax", "setting": "[10]", "result": "76.6 (62.5, 96.0)"}, {"measurement": "kcat", "setting": "[10]", "result": "1.5 (1.3, 1.9)"}, {"measurement": "kcat/Km", "setting": "[10]", "result": "2200 ± 700", "unit": "M⁻¹ s⁻¹"}]}
